# Columns and labels:
# [1] = biological target: JRFL SOSIP trimer (HIV-1 subtype B, truncated at residue 663), negatively selected (HIV-1 subtype B strain JRFL)
# [2] = biological target: 16055 SOSIP trimer (HIV-1 subtype C, truncated at residue 663), negatively selected (HIV-1 subtype C strain 16055); assay: negative-stain EM; negatively selected SOSIP trimers incubated with a ten molar excess of Fab or four-domain sCD4 at RT for 1 hour; 2% uranyl formate; 2D class averages (occupancy) and 3D reconstructions
# [3] = biological target: JRFL SOSIP trimer (HIV-1 subtype B, truncated at residue 663), negatively selected (HIV-1 subtype B strain JRFL); assay: as above
# Sequence of PGT151 Fab (VH): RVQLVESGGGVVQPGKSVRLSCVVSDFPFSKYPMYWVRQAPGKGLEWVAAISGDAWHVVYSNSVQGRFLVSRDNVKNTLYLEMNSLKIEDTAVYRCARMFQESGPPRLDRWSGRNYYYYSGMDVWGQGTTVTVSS
# Sequence of PGT151 Fab (VL): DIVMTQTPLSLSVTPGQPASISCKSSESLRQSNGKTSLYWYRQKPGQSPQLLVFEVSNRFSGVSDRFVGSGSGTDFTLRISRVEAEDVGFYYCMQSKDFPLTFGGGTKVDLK
substance,measurement,setting,value
PGT151 Fab,"increase of the melting temperature (Tm) of the JRFL SOSIP-Fab complex over the trimer alone, DSF",[1],2.1 °C
same,percent of trimers with one Fab bound,[2],34%
same,percent of trimers with three Fabs bound,[2],0%
same,percent of trimers with two Fabs bound,[2],20%
same,percent of trimers with one Fab bound,[3],28%
same,percent of trimers with three Fabs bound,[3],11%
same,percent of trimers with two Fabs bound,[3],36%
